In PMC11892609:

B1: WT mTMIE-HA-Avi [mouse] / Fyn-mTMC2-mCherry [mouse] (parent)
chain 1: QLVEPSTAPPKPKPPPLTKETVVFWDMRLWHVVGIFSLFVLSIIITLCCVFNCRVPRTRKEIEARYLQRKAAKMYTDKLETVPPLNELTEIPGEDKKKKKKDSVDTVAIKVEEDEKNEAKKKGEK
chain 2: MSPQLKSLDEEGDKSARRPTRKQTSRAACPQDGHRAQSSRKDPAKGSPRPGSSRKKQMEHGSYHKGLQGQKPRKVERSLQGRKKDRRTSLKEQRASPKKEREALRKEAGKQLRKPRSTSLGSSVSTGDSLSEEELAQILEQVEEKKKLITTVRNKPWPMAKKLRELREAQAFVEKYEGALGKGKGKHLYAYRMMMAKKWVKFKRDFDNFKTQCIPWEMKIKDIESHFGSSVASYFIFLRWMYGVNLVLFGLIFGLVIIPEVLMGMPYGSIPRKTVPRAEEERAMDFSVLWDFEGYIKYSALFYGYYNNQRTIGWLRYRLPMAYFMVGVSVFGYSLMIVIRSMASNTQGSTSEGDSDSFTFSFKMFTSWDYLIGNSETADNKYVSITTSFKESIVDEQESNKEGNIHLTRFLRVLANFLILCCLCGSGYLIYFVVKRSQEFSKMQNVSWYERNEVEIVMSLLGMFCPPLFETIAALENYHPRTGLKWQLGRIFALFLGNLYTFLLALMDDVHLKLSNEEKIKNITHWTLFNYYNSSGGNESVPRPPPHPADVPRGSCWETAVGIEFMRLTVSDMLVTYLTILVGDFLRACFVRFMNHCWCWDLEAGFPSYAEFDISGNVLGLIFNQGMIWMGSFYAPGLVGINVLRLLTSMYFQCWAVMSSNVPHERVFKASRSNNFYMGLLLLVLFLSLLPVAYTVMSLPPSFDCGPFSGKNRMYDVLHETIENDFPKFLGKIFAFLANPGLIIPAILLMFLAIYYLNSVSKSLSRANAQLRKKIQALREVEKNHKSIKGKAIVTYSEDTIKNSSKNATQIHLTKEEPTSHSSSQIQTLDKKAQGPHTSSTEGGASPSTSWHHVGSQPPRGRRDSGQPQSQTYTGRSPSGKRTQRPHN

Variants of: B1
Assay: pull-down with NeutrAvidin beads, western blot quantification
Settings: PK-HEK293T cells co-expressing Fyn-mTMC2-mCherry and mTMIE-HA-Avi, three experiments, parent: 1, read off a plot

Variant | ratio to parent
chain 1 QLVEPSTAPPKPKPPPLTKETVVFWDMRLWHVVGIFSLFVLSIIITLSSVFNCRVPRTRKEIEARYLQRKAAKMYTDKLETVPPLNELTEIPGEDKKKKKKDSVDTVAIKVEEDEKNEAKKKGEK [chain 1 C48S C49S] | 1.7
